± gives the uncertainty stated by the source.
assay: amyloid nucleation score (Sup35N fusion, yeast selection) (log enrichment); library NNK1; higher = more nucleation; inactive = no reads after selection
Outline: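 Plasmid inserts were Illumina-sequenced at input and output from psi-negative yeast expressing Sup35N fused to peptides of 20 random codons. The yeast were induced with 100 μM copper sulfate for 24 hours and grown 7 days at 30°C on medium lacking adenine and uracil, and sequences with under 100 input reads were excluded. Nucleation score is the DiMSum log enrichment of output over input reads, centred on the mode score of non-aggregating sequences.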

Point of comparison: TDYRFTRVWRRGVARS, amyloid nucleation score 0.707 ± 0.55. Against it:
- NSELFIGGDYLDIDST — within error, 0.591 ± 0.43
- VDGSSCFGCAGCTTRRFTSG — within error, -0.253 ± 0.43
- SARRTPCTVIL — within error, 0.362 ± 1.4
- YCGMKVDVVIVGRHVFRISF — within error, 0.512 ± 0.41
- RLIHRPVWV — within error, 0.526 ± 0.48
- SLNGMTYVSMIVRSD — within error, 1.41 ± 0.39
- PQGSVGLEFKNYCVRAACGF — within error, 0.078 ± 0.93
- CSGNI — within error, -1.32 ± 1.7
- NMALCTCGLNPGNL — within error, 0.003 ± 0.46
- MSDVCNVMKKVMQGTCFCGH — lower, -0.293 ± 0.27
- WLNFWILMSVMFVNMSSLFP — lower, -1.01 ± 0.52
- QPSKCGAWGPLFIAGVGLTQ — within error, 0.231 ± 0.33
- SVNWRYRALFDVRPAPLASQ — within error, -1.74 ± 2.4
- KDICSYGLNYSLDNVVYNLV — within error, 0.809 ± 0.39
- KPLILVQNTKLPSRFCYPLT — within error, -0.488 ± 0.74
- DNRLMHIIDMWCRSYFSGHT — within error, -0.063 ± 1.4
- LALPIFAFER — lower, -0.839 ± 0.46
- KLILK — lower, -0.378 ± 0.51
- TGTHDVVVAVGYR — lower, -0.658 ± 0.54
- RWGATRFVVTS — within error, 0.304 ± 1.2
- QVFKHGSPGHMLALCQRAV — within error, 1.39 ± 0.63
- KYKRSYTLDHVFYMSSPGVR — within error, 0.824 ± 0.73
- HLSVFQLDLTREVANCKSWM — higher, 3.17 ± 0.11
- DILCASPTLLAE — within error, 0.161 ± 0.49
- RRRASGHRASY — lower, -0.52 ± 0.39
- PTRPMTTELRRKVRRPALDG — within error, -0.139 ± 0.62
- DPIRCMCVFMVHPCRCDID — within error, 0.45 ± 1.1
- LYMICGVYCLDSGIRTMRTF — higher, 5.51 ± 0.067
- WVRYFPCRIII — lower, -1.27 ± 0.79
- VYPFD — lower, -1.32 ± 1.4
- GLDIFIWYMMVGIVYAFIYV — higher, 2.38 ± 0.53
- KCTELTTCRSPVMKGEAVWL — within error, -0.052 ± 0.77
- SLIGYVIKW — within error, -0.095 ± 0.63
- LLFHSGWMMNGNPWACWYRE — higher, 1.89 ± 0.25
- LILSYAN — within error, 1.33 ± 0.66
- AIYVRW — within error, 1.08 ± 0.22
- KRARGDFYILEWQSDLDNLG — lower, -0.755 ± 0.67
- DGLICVPVKLYVNIGKTFTW — within error, 0.847 ± 0.41
- SVRVPEHGRRWVSKGVG — within error, -0.785 ± 1.1
- CYSGCYRLCRVIVASCRCRG — within error, 0.015 ± 0.71
- MGTDRMCHS — within error, 0.328 ± 0.97
- GFTGFNRIGVLVGWKCN — within error, 0.763 ± 0.92
- FGMSCRVELDSDRARTTPWP — within error, 0.181 ± 0.64
- CFVGMMKRFR — within error, 1.36 ± 0.4
- NWSFEWWTSIAMEQ — within error, -0.222 ± 0.42
- WASMIHVEFYSNYFL — within error, -0.017 ± 0.72
- MVSIWINFT — higher, 6.38 ± 0.08
- SCTGCLFDTELRWISWVGLF — within error, 0.074 ± 0.39
- LYTNSLRF — within error, -0.419 ± 0.64
- ADDYCQPGKIGVNNGPHRKR — within error, -0.657 ± 1.7
- NVPCRVLRFGHLSDIGIDCQ — within error, 0.705 ± 0.9
- DSSVLRMQRVDRTRAFTYHW — lower, -0.68 ± 0.56
- MYVPQSINSYTQWEPKHIRW — within error, 1.64 ± 0.43
- VFCSQGMADTLR — within error, 0.409 ± 0.84
- YLCDSSLGVVYSFLHCRMVD — within error, -0.369 ± 0.67
- SGNMNSLYWKSQKCNSYSFP — within error, 0.935 ± 1.1
- KMLSSQLITRPFGGPKRHKP — within error, 0.753 ± 0.65
- LICNFRLSRYQSAVNVVYWV — within error, 0.802 ± 0.14
- CRFMNVRYGKRMKVDNTVMA — within error, -0.891 ± 1.4
- VWGYVMRS — within error, 0.299 ± 0.95
- KSITWSKGDFARSTLLVNIC — within error, 0.397 ± 0.43
- PYKTWRYSSRIFYWAALPMV — within error, -0.842 ± 1.7
- YVGADMELHSRMVTDTYFAS — within error, -0.707 ± 1.1
- KCHRPWYSCLIC — higher, 1.98 ± 0.61
- LAQELGR — within error, 1.68 ± 0.73
- SMAFGCWSVGWYRGMMSVCQ — within error, 1.16 ± 0.6
- IGSVDALKVVDVAMCVPT — higher, 2.34 ± 0.54
- LCEVRDCWVL — within error, 0.783 ± 0.41
- LYSLVGCWTLCLNVSCFEWL — higher, 4.93 ± 0.064
- RAIIGFSLSQRGYLPNTDLR — higher, 3.1 ± 0.095
- SHLLGINCCCA — within error, 0.131 ± 0.85
- VLGYAFYCYLCRNLRRNNFS — within error, 0.864 ± 0.53
- KYWVGWAVSFCVWYLTRLWE — within error, 0.337 ± 0.67
- VSVFLHAVITDPS — higher, 1.9 ± 0.46
- VGFYCHLCGYLVWGRWKHSA — within error, 1.18 ± 0.97
- LDSDGVASYDTRMSIRWYIE — higher, 2 ± 0.49
- SFFWDT — lower, -0.524 ± 0.51
- WVKCRDWYSILF — higher, 5.19 ± 0.089
- MKRTFRTLF — within error, 0.57 ± 0.41
- DTVSMLHQLVCW — higher, 7.245 ± 0.053
- ILSYVTVDPAKVNYIFREWF — lower, -1.03 ± 0.76
- HTEEGKSWFMRGSSVWFRVG — within error, 0.341 ± 0.18
- LTFCCIMYSIYHSQPDFCGL — higher, 2.37 ± 0.099
- WVSPLVYDWYLT — within error, -0.929 ± 2.7
- LFFTGVHRKF — higher, 4.28 ± 0.064
- EQCTLVVSYGVWGHRSSCVG — within error, 0.93 ± 0.45
- SGDCVL — within error, 1.43 ± 0.26
- YVMSS — lower, -0.369 ± 0.41
- TDAPHTCWLFFLYSVSFLIV — within error, -0.204 ± 0.43
- FRLEGRCSLLFCTCRLDV — within error, 0.561 ± 0.45
- RNDTSDVYGSSGRSNRP — within error, 0.007 ± 0.37
- PFNMVWMRKYHLRSR — lower, -0.378 ± 0.34
- DYRADFNNFVFEERSSYISV — within error, -0.236 ± 0.49
- INHLKGVSRYSVPVLLGFIA — within error, 0.124 ± 0.45
- TSAASLVERNLFLVSFFIIW — within error, -0.376 ± 1.7
- NWSHGLLTPNVCW — within error, -0.573 ± 1.4
- LAIFSMFALFSIFGWSNDFT — lower, -0.309 ± 0.43
- VVLEHVDYHS — within error, 0.822 ± 0.52
- SLRLARNGYIYAICRFLCYS — within error, -1.15 ± 2.7
- LVQVWLKN — within error, 0.43 ± 0.34
- VRGVSVGSYKSVAELGGTQT — within error, -0.449 ± 1.3
- KFTFDS — within error, 1.52 ± 0.35
- TLSKVICVSPTVGMGLSSER — within error, 0.616 ± 0.79
- IFYLTSVFVFSLLKFMTCER — within error, -1.17 ± 2.4
- AVCIYRHRLVTGSWWLSIS — within error, 0.359 ± 0.39
- SNSLCETWSRWWKRMFTDTF — within error, 0.179 ± 0.48
- VGFGQSHGVFRCGVMRLRRG — within error, 0.192 ± 1.1
- ISWMLLVLSFSMTVLNIRWN — lower, -0.199 ± 0.33
- ELRLSLYLRKRRQYFRFVLK — within error, -0.516 ± 1.7
- ELGKKYSLYSLVLAST — within error, 0.107 ± 0.67
- TCNRHSDTEGLC — lower, -1.13 ± 0.66
- LCKPCLGY — within error, 0.639 ± 0.24
- DKERSGTKQYNSYG — within error, -0.039 ± 0.73
- LYCMGVLPSLLAISMVWVRG — higher, 2.94 ± 0.2
- YDWAVSAS — within error, -0.364 ± 0.61
- ERVSETRQSLTWNHNERIWL — higher, 1.55 ± 0.12
- DCCKLTDQQWDVIHAGIWGG — within error, 1.55 ± 0.69
- IGVYSKNAQKGIRRDWCLWN — within error, 1.33 ± 0.62
- INNSDSCVMLMMNRVFCHGG — higher, 6.085 ± 0.048
- ACQGWGTWEELGHDERTDLV — within error, 0.817 ± 0.41
- LSVICMFTY — higher, 4.74 ± 0.052
- MVRYLGYYLPNWRSFHWHRL — within error, 0.951 ± 0.44
- FISHGRIVHGEDGAVLFVSG — within error, 0.277 ± 1.4
- YYDFGIIRSCVFSNGCVGMY — within error, 1.62 ± 0.8
- YMLMKGSVRYH — higher, 2.49 ± 0.2
- MLIRVISDVLPG — within error, 0.224 ± 0.5
- CMNSMC — within error, 0.066 ± 0.66
- HGYHVHDGALLNQHNIS — within error, 0.004 ± 0.57
- LLTDRRDSSSRNDTLVRKGM — higher, 2.23 ± 0.091
- IGSMNCRLLVTWKMVWLVPH — within error, -0.187 ± 0.5
- GTGTAPGINPWLLDSFPAPV — within error, 0.378 ± 0.28
- TLQLN — lower, -0.59 ± 0.65
- HYDSMTAL — within error, 0.491 ± 0.62
- WDKADVFLDDVSASRSSLKM — higher, 3.31 ± 0.088
- FMPRSLHLTTWLQSNAFNNA — higher, 3.22 ± 0.068
- GHVWEQGRQLGSAPKDR — within error, 0.1 ± 0.71
- VKKGILLSVLDASFRTSVYE — within error, -0.424 ± 0.88
- NFKVYPSGCKEECAYVLLSL — higher, 3.87 ± 0.079
- AYFYNEKNCYSHGKYVPYSF — within error, -0.797 ± 1.7
- FCQLVIFY — higher, 2.8 ± 0.18
- KACWTFNFCKSMVVKEHDPI — higher, 2.56 ± 0.19
- VKVIVIHAAC — lower, -0.256 ± 0.31
- YEGYGPCWRKLYS — within error, 0.15 ± 0.36
- VCESVNNAHAAYSAVLSVQM — within error, -0.347 ± 0.54
- DRREGF — lower, -0.892 ± 0.32
- GSDMIVYIYRCTVTLMGSST — higher, 3.83 ± 0.099
- WRMCSHCVLPHSMFSDSNTV — within error, -1.03 ± 1.3
- ASRILV — lower, -0.552 ± 0.6
- FNGRVRGYHSLDNVVHGRLY — within error, 0.522 ± 0.58
- RSSNLVCYFFSVWWY — higher, 2.02 ± 0.44
- CLLVKLARLGDG — within error, 0.536 ± 0.63
- MSLLALWCLSVRCTVVLVRT — within error, -0.003 ± 0.48
- QLLSRLGIS — within error, -0.641 ± 1.4
- AYLVPGQYVSPSFRFLTKNE — within error, 0.215 ± 0.68
- CVPPRVRCRFEL — within error, 0.792 ± 0.46
- IPTLRSPVNRWPRITMKVWL — within error, -0.161 ± 0.62
- YPAVNRWSLAVFSVRVRLAG — within error, -0.046 ± 0.38
- KRYSGDIDMTSREMGLFK — within error, 0.356 ± 0.16

With AYASFDGDPEGRGFTSSKGD the amyloid nucleation score was “inactive”.
In the case of FVDFMQRNWGLVRVPCHVSL, the amyloid nucleation score is reported as “inactive”.
For WHLWIVTTVTHMGSNNFLG, the amyloid nucleation score was “inactive”.
In the case of EWSFSYCGGVAFLSIEIEFL, the amyloid nucleation score is reported as “inactive”.
For PVDFNQYVVSGLQDLLHYAG, the amyloid nucleation score was “inactive”.
In the case of RFMTHLVRRLYAFGMSF, the amyloid nucleation score is reported as “inactive”.
With GFELEAIKEYFGCWPSHYRF the amyloid nucleation score was “inactive”.
In the case of DCDGVLSLCIMVHEIYRKVG, the amyloid nucleation score is reported as “inactive”.
In the case of SLLCTIYRVCADPYMGQNMT, the amyloid nucleation score is reported as “inactive”.
For HWTPC, the amyloid nucleation score was “inactive”.
In the case of TFLQFTRYFWLTTYNKGSS, the amyloid nucleation score is reported as “inactive”.
For CQSFIGTDTKFVIPDMVLAA, the amyloid nucleation score was “inactive”.
With ANYFQSICQFDVDRIKLNSA the amyloid nucleation score was “inactive”.
In the case of KRWTKNFDCFQTVMHIYCSQ, the amyloid nucleation score is reported as “inactive”.
With FSAIMVRC the amyloid nucleation score was “inactive”.

Reference: the supplement of paper PMC12042874
